According to patent US20150253341A1:

Molecular target: all six recombinant human Tau isoforms
Assay: immunoaffinity purification on 13A6 beads, trypsin digestion and LC-MS/MS, with against without purification

percent recovery: 60 to 75%
B1: mouse monoclonal anti-Tau antibody clone 13A6 (antibody, V domains shown)
VH: EVQLQQSGAELVRPGASVKLPCTASGFNIKDDYMNWVMQRPERGLEWIGWIDPENGDTAYASKFQGKATMTADTSSNTAYLQLSSLTSEDTAVYYCTSGGRFDYWGQGTSLTVSS
VL: DVLMTQTPLSLPVSLGDQASISCRSSQSIVHSNGSTYLEWYLQKPGQSPKLLIYKVSNRFSGVPDRFSGSGSGTDFTLKINRVEAEDLGVYYCFQGSHVPWTFGGGTKLEIK
